Test results reported in patent publication US20060074222A1.

Tests used:
[1] = target: Pin1 R14A (SEQ ID NO:2) (human) (UniProt Q13526); test: cell-based or functional assay
[2] = target: Pin1 (wild-type, SEQ ID NO:1) (human) (UniProt Q13526); test: cell-based or functional assay

MALDI-TOF mass increase after PKA treatment [1]: 90 Daltons
MALDI-TOF mass increase after PKA treatment [2]: 160 Daltons
Substance: phosphokinase A (PKA) (enzyme)
